Experimental data taken from patent US12240900 (MEDICOVESTOR, dated 2025).

Assays:
[1] = target: T1, fusion protein containing the extracellular domain of cynomolgus FRalpha and a polyhistidine tag (cynomolgus, UniProt A0A2K5U044 25-233); test: ELISA, cynomolgus FRalpha ECD-His coated
T1 construct: extracellular domain; Coated on ELISA plates; also called cynomolgus FRalpha extracellular domain; not shown: polyhistidine tag
Experimental: (§1) The affinity of each IgG1 for FRalpha was confirmed by ELISA. Briefly, a fusion protein containing the extracellular domain of human FRalpha and a polyhistidine tag was used to coat ELISA plates, which were washed three times with phosphate-buffered saline (PBS) containing 0.1 percent polysorbate 20 (PBST), then blocked with PBS containing 5 percent powdered milk (PBSM), and then washed three more times with PBST. Wells were then incubated with antibodies at varying concentrations for 60 minutes at room temperature in 1 percent PBSM. Wells were then washed three times with PBST, after which the secondary, horseradish-peroxidase-conjugated antibody anti-human-IgG-Fc-HRP (ab97225, Abcam, United Kingdom) was added at a 1:8000 dilution in 1 percent PBSM for 50 minutes at room temperature. The wells were then washed six times with PBST, after which 3,3', 5,5"-tetramethylbenzidine (TMB) was added. The reaction was stopped with 2 molar sulfuric acid, and the TMB diamine product was quantified at 450 nanometers in a plate reader. Results are depicted in FIG. 2.
The ELISA of the preceding paragraph was repeated with a fusion protein containing the extracellular domain of cynomolgus FRalpha and a polyhistidine tag. Results are depicted in FIG. 3.

[2] = target: T2, human FRalpha expressed on cells (transfected HEK293 cells; SKOV3 human ovarian cancer cells) (human, UniProt P15328 25-234); test: flow cytometry on HEK293 cells transfected to express FRalpha
T2 construct: whole, on cells; also called folate receptor alpha
T2 sequence (P15328 25-234): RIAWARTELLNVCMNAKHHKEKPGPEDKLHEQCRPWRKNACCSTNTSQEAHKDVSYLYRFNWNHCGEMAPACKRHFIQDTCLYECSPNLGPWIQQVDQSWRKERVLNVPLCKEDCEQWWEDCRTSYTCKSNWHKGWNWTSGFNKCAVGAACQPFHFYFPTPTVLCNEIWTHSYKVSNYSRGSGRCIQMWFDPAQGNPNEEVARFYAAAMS
Experimental: (§2) The affinity of each antibody was then assessed by flow cytometry. Briefly, HEK293 cells transfected to express FRalpha were washed with fluorescence-activated cell sorting (FACS) buffer, to which the IgGs were added at varying concentrations and incubated at 4 degrees Celsius for 60 minutes. The cells were then centrifuged and washed twice in FACS buffer. A phycoerythrin-labelled anti-human IgG, Fcgamma antibody (109-115-098; Jackson ImmunoResearch, Pennsylvania, United States) was then added to the cells at a 1:200 dilution and incubated at 4 degrees Celsius for 30 minutes. The cells were then washed, resuspended in FACS buffer, and counted by flow cytometry. Results are depicted in FIG. 4.

[3] = target: T3, fusion protein containing the extracellular domain of human FRalpha and a polyhistidine tag (human, UniProt P15328 25-233); test: ELISA, human FRalpha ECD-His coated
T3 construct: extracellular domain; Coated on ELISA plates; also called human FRalpha extracellular domain; not shown: polyhistidine tag
T3 sequence (P15328 25-233 limits assumed): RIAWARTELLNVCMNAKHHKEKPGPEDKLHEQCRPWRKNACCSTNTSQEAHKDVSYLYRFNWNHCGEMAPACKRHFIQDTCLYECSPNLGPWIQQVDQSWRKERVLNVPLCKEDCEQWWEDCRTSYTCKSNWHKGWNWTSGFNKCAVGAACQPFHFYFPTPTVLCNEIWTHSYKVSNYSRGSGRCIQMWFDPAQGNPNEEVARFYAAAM
Experimental: as §1

[4] = target: T2, human FRalpha expressed on cells …; test: flow cytometry on SKOV3 human ovarian cancer cells that express FRalpha
Experimental: as §2
The flow cytometry experiment of the preceding paragraph was repeated with a human ovarian cancer cell line that expresses FRalpha, SKOV3. Results are depicted in FIGS. 5A and 5B. […] The antibody according to SEQ ID NO: 3-12 was then designated the lead antibody for further development.

T1 sequence (A0A2K5U044 entry or part of it): as the sequence (P15328 25-233 limits assumed) above, with I2T, W4R, R37K, A146P, H171Y counted along it

B1: Mirvetuximab (antibody, V domains shown)
VH: QVQLVQSGAEVVKPGASVKISCKASGYTFTGYFMNWVKQSPGQSLEWIGRIHPYDGDTFYNQKFQGKATLTVDKSSNTAHMELLSLTSEDFAVYYCTRYDGSRAMDYWGQGTTVTVSS
VL: DIVLTQSPLSLAVSLGQPAIISCKASQSVSFAGTSLMHWYHQKPGQQPRLLIYRASNLEAGVPDRFSGSGSKTDFTLTISPVEAEDAATYYCQQSREYPYTFGGGTKLEIK
Question: Which results are given for B1?
Answer: EC50 [1]: ~0.16 nM; EC50 [2]: ~4 nM; EC50 [3]: ~0.12 nM

B2: lead fully-human anti-FRalpha IgG1 antibody (antibody according to SEQ ID NO: 3-12) (antibody, V domains shown)
VH: EVQLLESGGGLVKPGGSLRLSCAASGFTFSSYTMNWVRQAPGKGLEWVSSISSGGGYIYYADSVKDRFTISRDNAKNSLYLQMNSLRAEDTAVYYCAKGDTIMIISAWGQGTTVTVSS
VL: DIQLTQSPSTLSASVGDRVTITCRASQSISSWLAWHQQKPGKAPKLLIYAASSLQNGVPSRFSGSGFGTDFTLTISSLQPEDFATYYCQQASSFPLTFGGGTKVEIKR
notes: Human IgG1 / kappa; also called lead antibody; the anti-FRalpha IgG of this disclosure
Question: For B2, which EC50 [4] is on record?
Answer: < 1 nM

Question: And the EC50 [1]?
Answer: ~0.06 nM

Question: What about the EC50 [2] of the same binder?
Answer: ~5 nM

Question: What about the EC50 [3] of the same binder?
Answer: ~0.05 nM
